From a protein production outcome set (Wang et al. 2014)

Test: label from the status in PepcDB records

Sequence | protein production
MNLTKRITAWFLTLVMVLGLIPQTMFAQEIATSPLQYEATQEMNEDKTEATISIKFTETETIQLEKVTLSDGTEKVEDLSEVTYTVSENGKYDFKVNYVMEGTPQEETISVEVSGLEEKIKELVTNQNIELDVDIQLKGATYFDGHPNPFFGGTKQYMISDRSIIPYNGMQLMELIVEIPYQEGLEIQGITPSAASQYPDLSKVEKDDKNKKWTYSFYFYKNGTYEFTIDYILNGENKITSTSFTVDGLVSIKDIAMRRHLINEYGEFSGFRYQDGQYVTQDILAKEPSVGFFTFGLDGDNGTTAEYTTSLDGLQYLKNATGLYLYDCKKLAEGETIEPVTEGYYPNMKLFRVSNLNERPNMPKSAYNAELVTKSIANMPALTELVINGTGFSDCTVFRKITAGSLDYLQAMANNIVSLDGIESQQNLSSINIGQNKIKSIDPLSKLNQINFLNLMRNEVFDLRPINESLNQKAVAGNTVYGFAAREQNITYDRTVITPLQNGMYTVELPMPIDIDGSLTNTSSVSLKFANGTTKTYSTSQSEGKTYISIPEGDVDSSQENPFEGAEFKFSFNNNNGADPRTKAWFTGTVTFKASPIATNYHVIYDFISGTRGKSLPPEITNLLPIDSTKYYEGDTITAKNPTQLELEVSDGVWTFEGYDADSKTANANSANEDGNIQFTGTWIFETKKYDVSYKFESINTDKEVPKEILDMLPTVGSVEHGKTVNAPETEYKDVKVTDGVWSFKGWTPVKYENVTGNVEFVGKWEFKKNASIINHIPTISASDKTLTVGDTFDPLKDVTARDKEDGDLTKEIEILKNEVNTSKARVYEVTYKVTDSKGASSIKTIYVTVNPKMEELNRIPTISASDKTLTVGDTFDPLKDVTATDKEDGDLTKEIEILKNEVNTSEAGVYEVTYKVTDSKGASSIKTIYVTVNPKMEELNRIPTISASDKTLTVGDTFDSLKDVTATDKEDGDLTKEIEILKNEVNTSKAGVYEVTYKVTDSKGASSIKTIKVTVIEKNIPIIPNEPDKPSKPDTNKPEDNGSVGTGDKTNGVFWTMLSIICGISVIGVYRKKREINQ | failed
MNMDFNLFMNDIVRQARQEITAAGYTELKTAEEVDEALTKKGTTLVMVNSVCGCAGGIARPAAYHSVHYDKRPDQLVTVFAGQDKEATARARDYFEGYPPSSPSFAILKDGKIMKMVERHEIEGHEPMAVVAKLQEAFEEYCEEV | not failed
MNMDISKAAIVTGGSRGIGRAIAARLAADGFAVVVNYAGNGAKAHETVAAIESAGGKAIAIQGDVGKPQDVANLFAQARAAFGRIDVVVNSAGVMPMASIDVANLDAFDQVIATNLRGAFLVLAQAAANLGDDGRIIALSTSVIAKSLPGYGPYIASKAGVEGLVHVLANELRGRNITVNAIAPGPVGTDLFFNGKSEEAVASIARQAPMERIGMPDEIAAAVSFLAGPDGRWVNAQVLRVNGGFA | failed
MNMGKKIQEMAVWLEFLVGSGLAIFFHLVLHYEQAAYVIFGIGILLALGTYLIREEIEKNRSHLVEQYQQAHEIPFAMAGIADPECLAKAHELIAGTRRTITILQQGYIPLDENEFYLEGAKLSDQAVREIRAVDPLMAGWWTRGALVNFYQANLRALDRGVRIRRIFVVNREELGEPEVQKVLLSHYRDDIDIRIVYRDELPAAGEIIGRDTNSSFDFALYDDRVATDVFAHPGKYYGRKTAQPMEVAKYRHLYELIEHSAHTVSEDGDRIVPSAEVMPLAS | failed
MNMIEPAPVRKSVTVRTSPQQAFDVFVSGMGTWWIKGHSLTQSGQKTVVVEAVAGGRWYEIGNAGEECEWGRVIACDRPNRVLFDWQLNADFDYDPGLHTEVEVLFEANGEGGTTVILEHRHLEKYGVKAKEMRGIFDSENGWGGLLASYMEKAAA | failed
MNMNKTYIPKLDDLLGGGVKEGASIMFSASPGVDYEAFGYQMLNGRLDEGTRGFIFTNVEEPESIIYEFRSYGWDIESHIENGNLFFVDGSSPFLGMPSDQRYTVNDYSEIKDVVLNAINDIPGGVGIINNLSVIIDYLGNGDTLEIVEAWNRRASELDVNLVYLFTEWDYEPELIDKLRESMDCVVNLRTIEERVIIGQGFMVANSAWSEPPSTMVLFFVVQPGGVKVYVPKILVTGPYNSGKSSFVRAIATKSVSVDRKALSAFPTTIAMDIGHLEYKGFMADIFGTPGQERFDMILDVLSREAVGAFILLDSTAPETFARAKEMIRKTRAEAIPKVVVANKQDLPGALSPEEIREMMKLGADVPIVPASVTEGWGVRDALDTLLGLLYGGLEHHHHHH | failed
MNNEAVFSARLSSTQHVGLCRLCNSPLVHTFVDLGMSPPCESFVAADAANDVEPFYPLHAFVCDECFLVQLQEYVAPENIFTEYAYFSSFSDSWVAHAKRYCDMVIERFALGQSSFVVELASNDGYLLQHFLTSNIPMLGIEPAVNVAKVAIGKGIPTLTEFFNEALATDMAARGQKADLIIGNNVLAQVPDINDFVAGMKTLLKPEGVITLEFPHIEKLIAENQFDTIYHEHFSYFSLLTIEKMARRHGLKVFDVEEIPTHGGSLRVFFSHEDIRFPREARVDSLLARELNAGLDKIETYTAFAEAVRQTKRNLLSFLIRLKEMRKSICAYGAPGKGNTLLNYCGIGTDFIDFAVDRNPYKHGRLTPGMHIPIRPVSEIPHMKPDYVLILPWNLKNEIVAQMKDIRNWGGKFIVPIPDISIIDPKELVQ | failed
MNNKFKDFFGFGDNDSYEERDAYEEHYDEQEEMQNSNRPTNSRDSNVVSIKAGQAGSGPSKIVLYEPRVYSDAKEVAQNLLNQRAIIINFSRMDDASARRVVDFITGTVYALNGEIQRIGDKIFLATPPKFETDGKITELLDKKDTLG | failed
MNNKTNWVIIGRFGRPHGIKGFVTVHSFTDPADNILRYNDWHVFLNKQWQPLKLLTIEVRSKAIIAQIEGYPKRELVSALTNLDIGVQESQLAALAPGEYYWYQLIGMSVINSKGDLFGKVVEIMPTGSNDVLVVEGEKRHLIPYLPGQFVINVDESQQVITVDWDMNF | failed
MNNLNFTVIIPLFNKAEHILRTLQSVEWQKYPAAEIIVIDDGSTDEGPALVEKANIKNVKLVHQENQGVSAARNNGVALASHEYVAFLDADDEWLPLFLDEVARLIVKFPQAQFFGTRYQIVEPENNYCDAKIKLENINPEGVILDNYFDIASQGDLPFTMSSMVIERSLFQSIGGFPLNEPIGEDQDLFCRVALNTSIAYSPNIHSLYHKDAQNQASRINIPSTECGFSVRITKEARKDTKRKSAKYMLKYSATHLCHLAKLNIGNGHFSQARKLLSDPRCKLKPKHLIGLYGLSWIQQTSQWLANIIDYKQI | failed
MNNNEKKVKYFLRKTAYGLASMSAAFAVCSGIVHADTSSGISASIPHKKQVNLGAVTLKNLISKYRGNDKAIAILLSRVNDFNRASQDTLPQLINSTEAEIRNILYQGQIGKQNKPSVTTHAKVSDQELGKQSRRSQDIIKSLGFLSSDQKDILVKSISSSKDSQLILKFVTQATQLNNAESTKAKQMAQNDVALIKNISPEVLEEYKEKIQRASTKSQVDEFVAEAKKVVNSNKETLVNQANGKKQEIAKLENLSNDEMLRYNTAIDNVVKQYNEGKLNITAAMNALNSIKQAAQEVAQKNLQKQYAKKIERISSKGLALSKKAKEIYEKHKSILPTPGYYADSVGTYLNRFRDKQTFGNRSVWTGQSGLDEAKKMLDEVKKLLKELQDLTRGTKEDKKPDVKPEAKPEAKPDVKPEAKPDVKPEAKPDVKPEAKPDVKPEAKPDVKPEAKPDVKPKAKPDVKPEAKPDVKPDVKPDVKPEAKPEDKPDVKPDVKPEAKPDVKPEAKPEAKPEAKPEAKPEAKPEAKPDVKPEAKPDVKPEAKPEAKPEAKSEAKPEAKLEAKPEAKPATKKSVNTSGNLAAKKAIENKKYSKKLPSTGEAASPLLAIVSLIVMLSAGLITIVLKHKKN | failed
MNNQEKNMLGFNQDEYLTSAREIIAARQKAEQVADEIYQAGFSSLFFASVGGSLAPMMAINEFAKELTTLPVYVEQAAELIHKGNKRLNKDSVVITLSKSGDTKESVAIAEWCKAQGIRVVAITKNADSPLAQAATWHIPMRHKNGVEYEYMLLYWLFFRVLSRNNEFASYDRFASQLEILPANLLKAKQKFDPQADAIASRYHNSDYMMWVGGAEMWGEVYLFSMCILEEMQWKRTRPVSSAEFFHGALELLEKDVPLILVKGEGKCRALDERVERFASKITDNLVVIDPKAYALDGIDDEFRWIMAPCVVSTLLVDRLAAHFEKYTGHSLDIRRYYRQFDY | not failed
